Measurements published in the NTF2 design screens of Basanta et al. (2020).

Experiment: protease stability score; higher = more stable; yeast display proteolysis, trypsin and chymotrypsin;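 note: log10 excess protease needed over predicted unfolded state with 0 meaning unfolded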

Row | Sequence | protease stability score
1 | DEHNNEMARKVLHAWRKGDENRVKRMLDPNARIVIGDKTIHGMEQMQTWVQELKKEITIDLKSVHVQSQGDKANVEFTHKQKDNGKPDSRKVTVIFVFSNGRIKRIQVDDDG | 0.033
2 | DEHNSRQAKEWVKALNHNDTSRLMELVDPNATITVGDKSLTGREQMSEDVDRKREEINVFVNRVEVNSHGDRAKVRIDYQQHENGRPQRNVIVAILQFHNGKIQRVENEHDQ | -0.052
3 | DEHNVELARKLRSAVEKNSEKEAKNNIDKDVRAQYGDQEINGREHFAEWVQRLTHHIQWEIKSVTVRVTNGRVDVKMHVREEQNGKPREMDVKMTVVFDNGRIENVQVKKHG | 0.448
4 | DEHNVHKVKSMIRAMKTGDEETAQRLADPNVHVKIGDHTLQGRSQLKEYVKKLKTQAKFDFREVDAQDHNGHVKVNVDVVARINGKPVRYEVIIHVTFHNGKIKSAEYQVPQDYLDTLES | 0.522
5 | DEHNVRLAERLLHAIDTNDPKRVKEQVDKDVEYEVGDKRVHGRDDYIKQVETEIRQMSIHIQSMDIHSNGDKVNVRVTYTFTVDGRPQEDTVDYEVQFDNGKVRTVRNRFSEEQEERQKK | -0.245
6 | DEHNYTILQEIWEALKTNNKERFDELADPNARFQVGDKEFHGMETAARHLIRRHTEMRLDMKVDDYRLNGDHLSVDAKVRFRVNGQPNHYQMTLHAQIQGDKLKRMVWRIPESVLERIKS | 0.66
7 | DEHQRRKAKEFLDALRDGNPDDVKKYVDPNARRTVGDKSIHGRDQISHHVEKLKKKMRIEFRIQTITVHGNHIDIKAKMEFEINGKPNTHTFSQSMHAHNGKIKDIHVRIPEEVLRKSKR | -0.06
8 | DEHRLATEAIDQFERALQSGNPDEITKMADPDARVHVGDTQLRGREELQRYMHEVRQRHDQVEVHVHRISIDGNKINIHFVLNLNHNGQTDSQSYEMTARVQNGSAVVKEIIQQ | -0.296
9 | DEHRQLEEVLSQIQDALRTNNPDDWADQADENAEFNIGDKSFSGREKVREYAETHMKDADHVSMDVRRVDVRNGRARVSARITAKVNGETKDVTYDMVFKFHNGQAKLVQMNES | 0.996
10 | DEHRRAEEAAKRAMEIWKTGNERDAEDLADKNVSIDYGDKKYHGRHQIIKFFQELREDVDHVDLKVNDMDVKPGRAVANLRYVLNNDGRNRHDQHRMTLKLEGDKVYLKKIQQG | -0.108
11 | DEHRVQTHAEEFMKLLQRGDEKSLADLMDPNASVKIGDKVYHGREQIRHAMRELRERVDHIHVKDIQAQGNHINVDFVLNVNGKHQKYELHVDFSNGRVKSLSMQTS | 1.69
12 | DEHSDAKRVLEELSKAMENGDEQRVEDQLDENVRINVGENHYHGREHARLWFKQIVDHVDHVRDSMEDYRNQGENFVYVMSVVYQSNGQEKSIRIVYVMKNHNGTVRMVNVHEG | 1.02
13 | DEHSDERRLQTAMHALEQNDPDEIKRQMDKDASARYGEKDVTGRDNAKKAASDFKKKVDHVEIKHYDIQGDKLHAKAKVNINGQHIEIIMVLVAHNGHVQRLQVDHG | 0.227
14 | DEHSIAEQLAHQFIRAQESGDPDQVDRLADENVRVQIGDKQVKGRDVVRRTMQTWRDRSDHITARLRDVSVRNGQINLLIELDYRQNGQTQHHTLVIVAEVHNGQVRMVQIEIR | -0.221
15 | DEHTEKKRADEIKHAMRENDEKKLNDQMPPDVRMDVGDKQLHGRDEVIRHLQTQLRHADHVEIKHVEVTNGRVSIDAVFDVNGTRKRQVVVFVFHNGRAKEIHIEDK | 0.861
16 | DEHTERTLSRLVKRNDEKTMADRADENARAEYGDTTYHGKEEFKKWVNKMEERVDHRDLKEIRVHGNKIKVKMDQEVNGRRVEMEFEAHYHNGRLKFEVMKVRDEEQKEQLKQQQT | -0.09
17 | DEHTSAHNFIEHEWKVFSTNDKKSMKELIDKNVKIDVGDKQVNGREEAARQEVETAKRVDHVDVKLQHLSVHNGRIKAQFRRVLRVDGQDNDEVLRFVIQLNNGNAQAKDKHET | 0.115
18 | DEHVEHLVHEIMDALRTNDPDRLRQLMDPNAHAQIGDKQLHGRRTMVDHWQDTLEEIRVSIDVKSFSVKNGRADMTAKVEREDNGKPDDRTADIHIEFHNGKAVRIDVKYKG | 0.275
19 | DEHVEKRVDEWWKALRQNNPDEANKNMDPNAKLHIGDKTVHGREEAKRQIENRFKEMRFSYKVRHLTAENGEVEIEATFKVEHNGQPRSRSMRMSINVHNGRIVDIQVDIDPRDQQKFRK | 0.041
20 | DEHVIKNFLRVVRTNNEDSFVKMADKDAEITIGDKRYHGREDVHKAAKQRKDAFDEVSIVDYRIDGDKIKVRQSATVNGKKLDFEYTMVLHNGRVRTLDMKARDEEMERRLREIID | 0.023
21 | DEHVKETFHSFLHAQTTGDPDKMHKLFDKDARVRYGDKVYHGRETLMRIFHKLRRNIRVDVKFEDIKVDNGKLHAEADMTINHDGKPRQKKVIIELVLHNGKIKQFNQELRG | 0.723
22 | DEHVLELAKELFDALSFGSPEDVHRNADKNARFRIGDTEIKGMEQYVETVHKIKRELRLSITVKSMTAHNGDADIKADAVFNHNGTPRRVKIEVTMHVHNGKAVSVDIQFRK | 0.848
23 | DEHVLHELERAFRDNDFERLQEQFDENARVEIGDKTYHGKNQVQQAMNDFKTAYDHYQLKTFDIHGEKVFADVKATVNGHDVEFEWEMTASNGRIKKLHIQARDEEVKEQLKRALS | 0.109
24 | DEHVLRQVEEWLHNVQTGDEDRLIELVDPNARVEIGDKVIHGMHRMARDLRRKRENMDINIRDYRVQVRGDKARVDIEEQVHHNGRPNSRRFEIQVDADNGRVKQIKWQSES | 0.125
25 | DEHVNKLAHRLLEAIEEGNPEMFKELADEDVHFQVGDKSYHGMEDYANSIVEKLRQMHFEIKSYSFRNEPGRATLDLRVQMEHDGQPRESKNTVDVKAKNGRVKRVKFREKR | 0.155

Row | Sequence | protease stability score
26 | DEHVQQALERYWDAVTTNNPEQAVNNVDPNVEIVVGDKTLTGREDVHKHIKDVKDKQNVEIKSMQLRVHNGRVRARFKFEVNHNGEPTTDVVVVEAEVKNGKIQRVEARRDK | 0.899
27 | DEHVSRNFENMLRAIKSGNEEEIRELIDKNVRVQVGDKEIHGREEAVKDFKRRHEEIRFNLEVKRIEVRGNKVDVDAEASMTVNGKPYEWHVNIEVRARNGRIKYLNYRVPEEQVKKVES | 0.177
28 | DEHVSRNLLRVLKLMHKGNFEEVVNNMDPNARIKVGDKEVHGREKEQTKNRKKEKHMELKVDDYRFRDNNGQVEAEVDQKFTHDGQPRSERFKFRVEAHNGRIKKQSQKEDR | 0.007
29 | DEKAKDLFSKVMEAIRTGDEQKIRDNADPNVSVRYGDRNLTGREKVAETNYKIKRHMRIKIDHVRMEVHNGEAEVNVKRVITINGRPTRDTYRLIVVAQGDKLKSVVWKFSEEQRKRLEQ | 0.411
30 | DEKAKHMVERFFTALTTGDEQKLRDNVDPNAKFHYGDKRISGMEDNARTLVEEQKEIRFQYDRMHLDAKGDTIDVKLKYIADVNGKPIDVHVDVKFQFQNGRVQSISERIDPRVEKEMHS | 0.162
31 | DEKALEFIRKFEEVMKKGDHDTLKEMMDPNARFQYGDKTVHGREHAADWAKRVRDQMRVRIISVKYTARGNKATIQVRNQVNFNGRPLHDHFEVSFDMHNGKIKHASRTLSEEQRQRLEQ | 0.062
32 | DEKALENLRRVNDARKTNDEDRIKKLLDKDARVQVGDRQIKGRENVSDTLRKLEEHMRIEIKDYRVDVQNGRAKLEVHWQFEVNGKPRKVTYDWEAEANNGKIQTMHAQFTEEDKRKRKQ | -0.039
33 | DEKALNHANKMLEAYETGNEKQVADQVDKDVRVEIGDKFYHGRENLRERMKKLMKEARFRITVKSVKVQGDQAKIDAEVTHTHNGQPRKRHMSMTVDVQGDKIKQVHVQYHG | 0.523
34 | DEKALQLLQRIMEAWQKGDPQQVVDNIDKDARIHIGDKHLHGREDARRVVEQEMTEARLSFDVKHVSVQGDKVKVSFHAQLDTNGRPKTYRASATMNASNGKAKQMDVKEDK | -0.232
35 | DEKALRQFEKFMEAIKNGDEEKVVQLVDPNATVRYGDKKVEGREQIKDQMKKLHEEMRIQVNSVDVEDHNGRAHVRIDVIQEHNGTPDRAQLRANMSASNGRIKDLEFTKTK | -0.148
36 | DEKALRSAEEWVRQLNENNEDTLMKLADPNAEFSIGDKTVHGREQLREWIKKTLDKMHVHVKDVKYTDSGDKAQIDIDRVNEHNGRPDEDNVEMTMHLDNGTIHSVDVRKKS | -0.303
37 | DEKALRVAEEAIKAVQTGDPKKFATMADENARVRIGDKEVKGRENQVQLMKDWKHHMRWEQDVKSVTANGDKVEVKFEQVSETNGKPDHDTWNVHFTAQNGEVKSMTMTSNK | -0.504
38 | DEKAMDKVRKVKEIEDEGDSDEFNKMFDPNARFNVGDKSVHGMETYVDQLSKELKRLKRSVRIKSMHAEGNRVDMTVKYEVDVNGRPYRAQVHIIYTFHNGHFSHVTYRLDPQSQREFQK | 0.017
39 | DEKANTQAKRLLDVMNSGDEEKILRQMDEDVEVVIGDTKVKGREDIRRWMQKVLKELRVVYDLKHLRAHNGKIDIKAKMHNNHNGQPNSNDVIIIAKIHNGRFKHFEVHTQS | 0.804
40 | DEKAQDILKEIANAIRTNNPSQLKNLLDPNAKVKIGDKEFHGMDQLQEDVQRKKEKMRVDFDVRRVEVQGETVHARARVVIHHNGKPATMTYSMIVHIKNGRVRELQVNISETDKEKQKS | 1.62
41 | DEKAQTRVQDYLRALQNGDHKRLREYMDENVHLRVGDKEVHGRTTAANEIVKEVRNQEMSMSIKRVRASENHVQMEVVVQVEHNGKPREFSFQLNFKLENGQAKEIKYKIDPTVLKNIRK | 0.507
42 | DEKARKILKKMMHALEKGDEDKVRHLLDPNVKVRIGDKDITGREEVARNIFKTLQSMRVKIDRFHVEAKGDKVRAHQTAKAQHNGQPRRYQATVTARIHNGHFQRIDIQVDK | 0.944
43 | DEKDAEKVMRELAKAAVNGNYKKAVQLVKEDVQVEYMDQRTHGKEKLKEMLKKFTDLGAEVEYKEVHVKGDTVTVKVEAKMDGKKVKFKVQYVVTDHRLDKVTVKYSEEAYKVIKHG | 0.525
44 | DEKDAREWVKDREQNDFDQISRMMDENVKLEYGNKEVHGRERVNTELKKEEETADHVSIDRVEVEEGRAVIDAVVRFNGKDFKMVVTVSMENGKVKYIRDRFTDEQLEEDFVKQFN | 0.728
45 | DEKDEAVKLLEHLMEALRRGDEDHARSLADPNVRADIGDRDYSGRNKVAQEWIRRATQADHLELRIRDVRVDGNEVTLEAELSMKVNGETHSDTVHFQFEKHNGRVVLVHVQFK | 1.56
46 | DEKDETVVRKWLEAQHTGNPEEAKHQVDKNVDIRVGDHKVTGRHQIMHNLEQRKKSARFELQLTHLSASNGKVTIQIDVRINYNGRPFTDTLHATAKIKNGQLHSFSVDVDEEYLKKVKS | -0.272
47 | DEKDHARHLVKRLLHAIRTGNPDEAMRLAPPNVRVSYGDTQIHGREQFHKWVKTIRDTVDRQRFTIVNVTVHNGQANVSIRYRLNHNGKDDKNEMTARFVEHNGQLKLVSMSRS | 0.522
48 | DEKDHENVARNLVTAIVQGDPDRFKELLDKNVKFKYGETDVKGKDNAERVMKDFIKEADQVRVQTLSFHGEHIVINMVADVNGEEQRFQIRAKVHNGRVKEMVWHSR | 1.5
49 | DEKDKARKLNDRVREVMETGDPRKFTELADPNARYIIGDKEFHGTENITKYAKTLRDQVDHVDVKVDHVNVQGNKVVADMKFTAEKNGSRLHYRMIVVAVIQGDNVNAQQVHFK | 1.18
50 | DEKDKARRMAETIDKLAERNDFEELAKNADPDAKVTVGDKTFHGEENLVKHLQEERKRIDQVRIEVKDVKVQGDEIRINAKYEATHNGRRVDQQVRVIVEVHNGRLVISEMQYE | 0.979
